Laboratory results taken from the nanobody polyreactivity screen of Harvey et al. (2022).

Experiment: yeast display, Sf9 membrane polyspecificity reagent, FACS + sequencing; frameworks hold sequencing errors
In short: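 Synthetic nanobody libraries on Saccharomyces cerevisiae BJ5465 were galactose-induced for 36–48 hours, stained 1 hour at 4 °C with 10% biotinylated, detergent-solubilized Sf9 membrane reagent and enriched on streptavidin microbeads. FACS then separated cells into low and high (top ~1%) gates by anti-HA (expression) and streptavidin (reagent binding) fluorescence. Genes were colony-PCR amplified, MiSeq 2 × 250 sequenced and CDR-length filtered. A clone's polyreactivity label is that of its gate of origin.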

Sequence	polyreactivity (PSR sort gate)
QVQLVESGGGLVQAGGSLRLSCAASGSTFNGYVMGWYRQAPGKERELVAAISRSGGSTYYADSVKGRFTISRDNAKNTVYLQMNSLKPEDTAVYYCAVQRKSSKRAFRYGYWGQGTQVTVSS	high polyreactivity
QVQLVESGGGLVQAGGSLRLSCAASGSTFNKYTMGWYRQAPGKERELVASISSDGSTNYADSVKGRFTISRDNAKNTVYLQMNSLKPEDTAVYYCAADEGTGQASLSSNLYDYWGQGTQVTVSS	low polyreactivity
QVQLVESGGGLVQAGGSLRLSCAASGSTFNNNAMGWYRQAPGKERELVAAISYTGGSTYYADSVKGRFTISRDIAKYTVYLQMNSLKPEDSAVYYCARRQARKFYYWGQGTQVTVSS	high polyreactivity
QVQLVESGGGLVQAGGSLRLSCAASGSTFNNYAMGWYSQAPGKERELVAAITRGGGSTHYADSVKGRFTISRDNAKKTVYFQMNCRKPEDTAVYYCAVAGFDRGQYVRYYYWGQGTQVTVSS	low polyreactivity
QVQLVESGGGLVQAGGSLRLSCAASGSTFNRTPMGWYRQAPGKERELVAGISAGGRTYYTDSVKGRFTISRDNAKNTVYLLMNSLKPEDTAVYDCGTTSWWRCDLHTYLLTHYDYWGQGSQVTVSS	low polyreactivity
QVQLVESGGGLVQAGGSLRLSCAASGSTFNRYAMGWYRPAPGKDRELVAAISASGGSTYYADSVKGRFRISRDNAKNTVYLQMNSLKPEDTAVYYCATLHYVGQEHDYWGQGTQVTVSS	low polyreactivity
QVQLVESGGGLVQAGGSLRLSCAASGSTFNRYAMGWYRQAPGKERELVAAITSTGGTNYADSVKGRFTISLDNAKNTVYLQMYSLKPEDTAVYYCAKRWLRWRSNYWGQGTQVTVSS	high polyreactivity
QVQLVESGGGLVQAGGSLRLSCAASGSTFNSYTMGWSRQAPGEERELVAAITWSGGRTYYADSVKGRFTISRDNAKNTVYLQMNSLKPEATAVYYCAKDRVGEMYYWGQGTQVTVSS	low polyreactivity
QVQLVESGGGLVQAGGSLRLSCAASGSTFNSYVMGWYRQAPGQERELVAAITWSGGRTYYADSVKGRFTISRDNAKNTVYLQMNSLKPEDTAVYYCARKKRRGRDWGYDYWGQGTQVTVSS	high polyreactivity
QVQLVESGGGLVQAGGSLRLSCAASGSTFNTNAMAWYRHAPGKERELVAAISWSSTRTYYADSVKGRFTISRDNAKNTVYLQMNSLKPEDTAVYYCAAATYQSRYFQRFDYWGQGTQVTVSS	high polyreactivity
QVQLVESGGGLVQAGGSLRLSCAASGSTFNTNTMGWYRQAPGKERELVAAISQSGTRTYYANSVKGRFTISRDNAKYTVYFQMNSLKPEDTAVYYCSADRQRYTSSSRKGLGYWGQGTQVTVSS	high polyreactivity
QVQLVESGGGLVQAGGSLRLSCAASGSTFNVYSMGWYRQAPGKERELVAAIDTGDGSTFYADSVKGRFTISRDNAKNTVYLQMNSLKPEDTAVYYCAAEFWAIVDGDYCGQGTQVTVSS	high polyreactivity
QVQLVESGGGLVQAGGSLRLSCAASGSTFNWYAMGWYRQAPGKERELVASIRISGGSTYYADSVKGRFTISRDNAKNTVYLQMNSLKPEDTAVYYCNAKLFIRWFTYDYWGQGTQVTVSS	low polyreactivity
QVQLVESGGGLVQAGGSLRLSCAASGSTFNYNAMGWYRPAPRKERELVAAITWNSGSTYYADSVKGRFTISRDNAKNTVYLQMNSLKQEDTAVYSCAADFTIPYWDAKFDYWGQGTQVTVSS	low polyreactivity
QVQLVESGGGLVQAGGSLRLSCAASGSTFNYNAMGWYRQAPGKERELVAAITYSGSSTYYADSVKGRFTISRDNAKNTVYLQMNSLKPEDTAVYYCAKDWYYLRRNYDYWGQGTQVTVSS	high polyreactivity
QVQLVESGGGLVQAGGSLRLSCAASGSTFNYYAMGWYRQAPGKERELVAAISSRSSRTFYADSVKGRFTISRDNEKNTVYLQMNSLKPEDTAVYYCAVKKRAPDGDYWGQGTQVTVSS	high polyreactivity
QVQLVESGGGLVQAGGSLRLSCAASGSTFNYYDMGWYRQAPGKERELVATITSRGRSTYYADSVKGRFTISRDNAKNTVYLQMNSLKPVDTAVYYCAADWRAYIRRAAYSPFDYWGQGTQVTVSS	low polyreactivity
QVQLVESGGGLVQAGGSLRLSCAASGSTFNYYTMGWYRQEPGKETELVAAISGRVSITYYADSVKGRFTISRDNAKNTVYLQMISLKPEDTAVYYCAAGPGYVRYPRSGVWYVTLYDYWGQGSQVTVSS	high polyreactivity
QVQLVESGGGLVQAGGSLRLSCAASGSTFPDYAMGWYRQAPGKERELVAAISGDSDDTYYADSVKGRFTISRDNAKNTVYLQMNSLKPEDTAVYYCAARRGRAVYSVAYDYWGQATQVTVSS	high polyreactivity
QVQLVESGGGLVQAGGSLRLSCAASGSTFPDYAMGWYRQAPGKERELVAAISRRGVRTYYADSVKGRFTISRDNAKNTVYLQMNSLKPEDTAVYYCAAPSLLSGSDMDYWGQGTQVTVSS	high polyreactivity
QVQLVESGGGLVQAGGSLRLSCAASGSTFPDYAMGWYRQAPGKERELVAAISWSGGSTYYADSVKGRFTISRDNAKNTVYLQMNSLKPEDTAVYYCAAGYSPPKPYSGGYYYWGQGTQVTVSS	low polyreactivity
QVQLVESGGGLVQAGGSLRLSCAASGSTFPEYAMGWYRQAPGKERELVATISWSGGSTDYADSVKGRITISRDNAKNTVYLQMNSLKPEDTAVYYCNKELIPHFDTRESWGQGTQVSVSS	low polyreactivity

Sequence	polyreactivity (PSR sort gate)
QVQLVESGGGLVQAGGSLRLSCAASGSTFPFYAMGWYRQAPGKERELVAAIPSGGSTYADSVKGRFTISRDNAKNTVYLQMNSLKPEDTAVYYCAASWPRWWRFGYWGQGTQVTVSS	low polyreactivity
QVQLVESGGGLVQAGGSLRLSCAASGSTFPFYAMGWYRQAPGKERELVAAITSGGSTYADSVKGRFTISRDNAKNTVYLQMNSLKPEDTAVYYCAASWPRWCRFGYWGQGTQVTVSS	low polyreactivity
QVQLVESGGGLVQAGGSLRLSCAASGSTFPFYAMGWYRQAPGKERELVATISSDGSTNYADSVKGRFTISRDNAKNTVYLQMNSLKPEDTAVYYCNALARWWAYYDYGYWGQGTQVTVSS	low polyreactivity
QVQLVESGGGLVQAGGSLRLSCAASGSTFPGNAMGWYRPAPGKERELVARINDGADTNYADSVKGRFTISRDNAKNTVYLQMNSLKPEDTAVYYCAKPYYDGRTHFDSWGQGTQVTVSS	low polyreactivity
QVQLVESGGGLVQAGGSLRLSCAASGSTFPGNAMGWYRQAPGKEREFVAVISRSGGGTYYADSVKGRFTISRDNAKNTVYLQMNSLKPEDTAVYYCAARRGLWGYGTGNGYWGQGTQVTVSS	low polyreactivity
QVQLVESGGGLVQAGGSLRLSCAASGSTFPGNAMGWYRQAPGKERELVASIRRSGGSTYYADSVKGRFTISRDNAKNTVYLQMNSLKPADTAVDDCAKRTFLVSGPRSYGCYGVYYWGQGTQVTVSS	high polyreactivity
QVQLVESGGGLVQAGGSLRLSCAASGSTFPGNAMGWYRQAPGKERELVASIRRSGGSTYYADSVKGRFTISRDNAKNTVYLQMNSLKPEDTAVYYCAKRTFLVSGPRSYGCYGVYYWGQGTQVTVSS	high polyreactivity
QVQLVESGGGLVQAGGSLRLSCAASGSTFPGYAMGWYRQAPGKERELVAAGGSTYYADSVKGRFTISRDNAKNTVYFQMNSLKPEDTAGYYCAATWGSVQKGTYYYWGQGTQVTVSS	low polyreactivity
QVQLVESGGGLVQAGGSLRLSCAASGSTFPGYAMGWYRQAPGKERELVAAISKRGGSTRYADSVKGRFTISRDNAKNTVYLQMNSLKPEDTAVYYCNNRSQISHYRRHDYWGQGTQVTVSS	high polyreactivity
QVQLVESGGGLVQAGGSLRLSCAASGSTFPKYAMGWYRQAPGKERELVAAISWSGDSTYYADSVKGRFTISRDNAKNSVYLQMNSLNPEDTAVYYCAAYNFIHAGPWEYDYWGQGTQVSVSS	low polyreactivity
QVQLVESGGGLVQAGGSLRLSCAASGSTFPLNVMGWYRQAPGKERELVAAISSSGGRTYYADSVKGRFTISRDNAKNTVYLQMNSLKPEDTAVYYCNARWRKNLSGRVFRYDYWGQGTQVTVSS	high polyreactivity
QVQLVESGGGLVQAGGSLRLSCAASGSTFPLYAMGWYRQAAGKEWELVAAITSGGGNTYYADSVKGRFTISRDNAKNTVYLQMNSLKPEDTAVYYCAAVGGYKSYYSYEYDYWGQGTQETVSS	low polyreactivity
QVQLVESGGGLVQAGGSLRLSCAASGSTFPLYAMGWYRQAPGKEREFVAAIRWIGGSTYYADSVKGRFTISRDNAKNTVYLQMNSLKPEDTAVYYCAADYVVSAFDYWGQGTQVTVSS	low polyreactivity
QVQLVESGGGLVQAGGSLRLSCAASGSTFPLYVMGWYRQAPGKERELVAAIDWSGGSTYYADSVKGRFTISRDTAKNTVYLQMNSLKPEDTAVYYCAADSPNSWRMDYWGQGTQVTVSS	low polyreactivity
QVQLVESGGGLVQAGGSLRLSCAASGSTFPPNAMGWYRQAPGKERELVADSSDSSTYYADSVKGRFTISRDNAKNTVYLQMNSLKPEDNAVYYCAAADAGLRSKSYGQQYDYWGQGTQVTVSS	low polyreactivity
QVQLVESGGGLVQAGGSLRLSCAASGSTFPPNPMGWYRKATGKERELVSSIRRGGSTHYADSVKGRFTISRDNEKNTVYLQMNSLKPEDTAVYYCAKDVWRHYLNLYDYWGQGTQVTVSS	low polyreactivity
QVQLVESGGGLVQAGGSLRLSCAASGSTFPPYAMGWYRKATGNERELVADISSGVSTNYADSVNGRFTISRDNAKNTVYLQMHSLKPEDTAVYYCAADVYHYEWWYFSEFDYWGLGTQVTVSS	low polyreactivity
QVQLVESGGGLVQAGGSLRLSCAASGSTFPPYAMGWYRQAPGKERELVADITRRGASTYYADSVKGRFTISRDNAKNTDYLQMNSLKPEDTAVYYFAAGPYVGQRWYRYNYDYWGQGTQVTVSS	high polyreactivity
QVQLVESGGGLVQAGGSLRLSCAASGSTFPRNAMGWYRQAPGKERELVAAISYSGGRTYYADSVKGRFTISRDNAKNTVYLQMNSLKPEDTAVYYCAAQPYSHVRGKSYGYWGQGTQVTVSS	high polyreactivity
QVQLVESGGGLVQAGGSLRLSCAASGSTFPRYAMGWYRQAPGKERELVAAISSSGRTYYADSVKGRFTISRDNAKNTVYLQMNSLKPEDTAVYYCNAPVARGEASYYWGQGTQVTVSS	high polyreactivity
QVQLVESGGGLVQAGGSLRLSCAASGSTFPSYAMGWYRQAPGKERELVAAINRSGGSTYYADSVKGRFTISRDNAKNTVYLQMNSLKPEYTAVYYCATGLTTGGGYYWGQGTQVTVSS	high polyreactivity
